Results from US20220340685A1, “COMBINATION THERAPY WITH ENTPD2 AND CD73 ANTIBODIES” (Novartis AG, priority 2019, published 2022).

Key:
ENTPD2 = biological target: T1, ENTPD2 (Homo sapiens, UniProt Q9Y5L3); experiment: Cell-based screen of hybridoma-derived mAbs for inhibition of ATP hydrolysis by ENTPD2
T1 sequence (Q9Y5L3 1-495): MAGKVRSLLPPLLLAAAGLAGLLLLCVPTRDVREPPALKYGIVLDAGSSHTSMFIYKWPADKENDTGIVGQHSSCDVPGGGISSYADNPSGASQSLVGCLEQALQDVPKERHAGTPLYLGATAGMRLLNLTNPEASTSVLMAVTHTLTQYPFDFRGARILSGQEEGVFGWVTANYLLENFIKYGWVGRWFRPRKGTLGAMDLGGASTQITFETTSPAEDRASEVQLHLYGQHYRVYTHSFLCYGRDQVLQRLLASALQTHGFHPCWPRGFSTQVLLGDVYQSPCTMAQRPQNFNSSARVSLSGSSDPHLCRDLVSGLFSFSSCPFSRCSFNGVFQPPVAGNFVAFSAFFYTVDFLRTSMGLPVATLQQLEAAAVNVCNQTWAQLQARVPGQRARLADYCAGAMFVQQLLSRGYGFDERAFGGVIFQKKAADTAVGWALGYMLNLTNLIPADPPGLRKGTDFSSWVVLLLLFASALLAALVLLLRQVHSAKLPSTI
Source text: Hybridoma-derived mAbs were screened in a cell-based assay for inhibition of ATP hydrolysis by ENTPD2.

B16F10 tumor model = experiment: Syngeneic B16F10 tumor model, tumor growth; type: in vivo, C57BL/6 mice; conditions: mAb13 15 mg/kg, anti-PD-1 Ab 10 mg/kg i.p., days 1, 5, 8
Description: B16F10 model was established in female C57BL/6 mice by subcutaneous injection of 0.5×10^6 cells into the right flank of each mouse. On day 7 once tumors reached approximately 30 mm^3, mice were randomized according to tumor volume into treatment groups (n=10 per group). Mice received treatment of either anti-mouse ENTPD2 mAb13 at a final dose 15 mg/kg, anti-PD-1 Ab (clone RMP1-14 Bio X Cell, West Lebanon, N.H.) i.p. at a final dose of 10 mg/kg or the combination of both treatments on days 1, 5, and 8. All doses were adjusted to individual mouse body weights.

[1] = test system: mouse ENTPD2-engineered 4T1 clone 45; experiment: Mouse ENTPD2 engineered 4T1 clone 45 syngeneic model, efficacy; type: in vivo, BALB/c mice; conditions: Day 12 post treatment; mAb15 10 mg/kg i.p.; mAb 350 20 mg/kg i.p.
Source text: This model was derived from the 4T1 murine breast cancer model, where mouse ENTPD2 was overexpressed using a retroviral transduction approach. […] Stable mouse ENTPD2 expression (approximately 479,000 receptors) in the model was confirmed in vitro by flow cytometry with the mouse ENTPD2 selective anti mouse ENTPD2 mAb15 (FIG. 27).
(§1) Mouse ENTPD2-engineered 4T1 clone 45 model was established in female BALB/c mice by subcutaneous injection of 0.5×10^6 cells into the right flank of each mouse. Once tumors reached approximately 50-80 mm^3, mice were randomized according to tumor volume into treatment groups (n=10 per group). Mice received an i.p. treatment of either Anti-mENTPD2 mAb15 or a non-specific mouse IgG2a isotype control at a final dose of 10 mg/kg on day 0, 2, 5 and 9. Anti-CD73 mAb 350 or a non-specific human IgG4 was dosed i.p. at a final dose of 20 mg/kg on day 0 and 5.

4T1 clone 45 tumors = experiment: 4T1 clone 45 model, flow cytometry of tumor cells and immune infiltrate on day 12; type: in vivo, BALB/c mice
Source text: In order to understand the impact of anti-ENTPD2 mAb15 alone or in combination with anti-CD73 mAb 350 treatments on the tumor microenvironment, mice were euthanized on day 12 and tumors were dissociated in HyClone RPMI1640 media (GE Healthcare, Pittsburg, Pa.) using gentleMacs C-tubes (Miltenyi Biotec, Auburn, Calif.) on the gentleMacs Octo Dissociator (Miltenyi Biotec, Auburn, Calif.). Approximately 2×10^6 dissociated tumor cells were blocked with rat anti-mouse CD16/CD32 Ab (Biolegend, San Diego, Calif.) to reduce non-specific FcyRIII/II binding and subsequently stained with the cocktails of antibodies from either the myeloid or T cell panel:
We also stained cells with an anti-ENTPD2 antibody whose binding to ENTP2 is not blocked by anti-ENTPD2 mAb15. All incubations and washed were performed in FACS Buffer composed of 1× Hyclone Phosphate Buffered Saline (GE Healthcare, Pittsburg, Pa.), 1% HyClone Fetal Bovine Serum (GE Healthcare, Pittsburg, Pa.), 2 mM EDTA (ThermoFisher, Waltham Mass.).

4T1 clone 45 model = experiment: 4T1 clone 45 model, plasma cytokines and Serum Amyloid P 24 hr post treatment; type: in vivo, BALB/c mice; conditions: 24 hours after the first treatments
Source text: In order to investigate the immediate impact of ENTPD2 blockade from an immune pathway engagement/biomarker perspective plasma was collected from BALB/c mice 24 hr after treatment with anti mENTPD2 mAb15 alone or in combination with anti-CD73 mAb 350.
as §1, with “100-150” for “50-80”, “(n=8” for “(n=10”, “mAb 15” for “mAb15”, “5 (Table 28).” for “5.”
For the measurement of cytokines and Serum Amyloid P, a marker of inflammation in a mouse, plasma was collected pre-dosing the mice on Day 0 and 24 hours after the first treatments on Day 1.
Briefly, plasma was isolated via collection of blood into Microvette MV-H-300 Capillary Plasma Lithium Heparin Blood Collection tube (Sai Infusion technologies, Lake Villa, Ill.), that were spun down at 1000-2000 ×g for 10 min. Plasma samples were stored at −80C until use. 10 μL of serum diluted 1:5 was used for cytokine analysis using the MSD Mouse Pro-Inflammatory Panel 1 (MSD, Rockville, Md.) and 5 μL of serum diluted 1:10 MSD Mouse Cytokine Panel 1 (MSD, Rockville, Md.) according to manufacturer's recommendations. To determine the levels of SAP 10 μL of undiluted serum was used for analysis in the SAP Quantikine® ELISA (RnD systems) according to manufacturer's recommendations.

B1: mAb16: hybridoma-derived anti-human ENTPD2 lead inhibitory mAb (chimeric); VH/VL DNA SEQ ID NO: 226/230 (antibody, V domains shown)
VH: DIQLQESGPGLVKPSQSLSLTCSVTGYSITSGYYWNWIRQFPGNKLEWMGYISYDGDNNYNPSLKNRISITRDTSKNQFFLKLSSVTTEDTATYYCAGGYYRYGLSYYYVMDYWGQGTSVTVSS
VL: DTVLTQSPASLAVSLGQRATISCKASQSVDYDGNSYMNWYQQKPGQPPKLLIYAASNLESGIPARFSGSGSGTDFTLNIHPVEEEDAATYYCQQSNEDPPTFGGGTKLEIK
modifications: constant regions not cited
ENTPD2
  inhibition of ATP hydrolysis by ENTPD2 (screen outcome): lead inhibitory mAbs

B2: mAb13: anti-mouse ENTPD2 monoclonal antibody; HC SEQ ID NO: 193, LC SEQ ID NO: 204 (antibody)
heavy: QVQLVQSGAELKQPGQSVKISCKASGYTFTHYGMNWVKQAPGQGLKWMGWINTDTGNPTYADDFKGRFVFSLDTSVSTAYLQISNLKNEDTATYYCVRYGTLYSGYGFFFDSWGQGTLVTVSSAKTTAPSVYPLAPVCGDTTGSSVTLGCLVKGYFPEPVTLTWNSGSLSSGVHTFPAVLQSDLYTLSSSVTVTSSTWPSQSITCNVAHPASSTKVDKKIEPRGPTIKPCPPCKCPAPNLLGGPSVFIFPPKIKDVLMISLSPIVTCVVVDVSEDDPDVQISWFVNNVEVHTAQTQTHREDYNSTLRVVSALPIQHQDWMSGKEFKCKVNNKDLPAPIERTISKPKGSVRAPQVYVLPPPEEEMTKKQVTLTCMVTDFMPEDIYVEWTNNGKTELNYKNTEPVLDSDGSYFMYSKLRVEKKNWVERNSYSCSVVHEGLHNHHTTKSFSRTPGK
light: DIMMTQSPSSLSVSAGEKATITCKSSQSLFNSNTNKNYLNWYLQKPGQSPKLLFYYASTRHTGVPDRFIGSGSGTDFTLTITSVQDEDLADYYCQQWYSYPWTFGPGTKLEIKRADAAPTVSIFPPSSEQLTSGGASVVCFLNNFYPKDINVKWKIDGSERQNGVLNSWTDQDSKDSTYSMSSTLTLTKDEYERHNSYTCEATHKTSTSPIVKSFNRNEC
B16F10 tumor model
  anti-tumor efficacy (tumor growth relative to No Treatment): No significant anti-tumor efficacy

B3: mAb15: anti-mouse ENTPD2 antibody, T30 variant of mAb13; HC SEQ ID NO: 218, LC SEQ ID NO: 204 (antibody)
heavy: QVQLVQSGAELKQPGQSVKISCKASGYTFHHYGMNWVKQAPGQGLKWMGWINTDTGNPTYADDFKGRFVFSLDTSVSTAYLQISNLKNEDTATYYCVRYGTLYSGYGFFFDSWGQGTLVTVSSAKTTAPSVYPLAPVCGDTTGSSVTLGCLVKGYFPEPVTLTWNSGSLSSGVHTFPAVLQSDLYTLSSSVTVTSSTWPSQSITCNVAHPASSTKVDKKIEPRGPTIKPCPPCKCPAPNLLGGPSVFIFPPKIKDVLMISLSPIVTCVVVDVSEDDPDVQISWFVNNVEVHTAQTQTHREDYNSTLRVVSALPIQHQDWMSGKEFKCKVNNKDLPAPIERTISKPKGSVRAPQVYVLPPPEEEMTKKQVTLTCMVTDFMPEDIYVEWTNNGKTELNYKNTEPVLDSDGSYFMYSKLRVEKKNWVERNSYSCSVVHEGLHNHHTTKSFSRTPGK
light: DIMMTQSPSSLSVSAGEKATITCKSSQSLFNSNTNKNYLNWYLQKPGQSPKLLFYYASTRHTGVPDRFIGSGSGTDFTLTITSVQDEDLADYYCQQWYSYPWTFGPGTKLEIKRADAAPTVSIFPPSSEQLTSGGASVVCFLNNFYPKDINVKWKIDGSERQNGVLNSWTDQDSKDSTYSMSSTLTLTKDEYERHNSYTCEATHKTSTSPIVKSFNRNEC
[1]
  AT/AC value: 76.61
4T1 clone 45 tumors; day 12
  CD4+ central memory cells (CD45+MHCII-CD49−CD4+CD62L+CD44+): significant increase
  activated CD8+ T cells (CD45+MHCII-CD49−CD8+CD25+): significant increase
4T1 clone 45 tumors; day 12, vs hIgG4 and mIgG2 isotype antibodies
  cell surface ENTPD2 staining on tumor cells: decrease in cell surface ENTPD2 staining
4T1 clone 45 model
  SAP (Serum Amyloid P): significant increase
  plasma IP10: significant increase
  plasma MCP1: significant increase
  plasma MIP-2: significant increase
